Results as given in US11965039B2, “Compstatin analogues and their medical uses” (priority 2018, dated 2024).
Starred links: 1 amine or outer side, 2 acyl side, 3 side chain; linkers in the order of their positions; H or OH if unused. Positions of bridges follow the written chain, without caps; N, C: chain ends. Non-standard residues stand in square brackets, D forms with d. Groups on a side chain read outwards from the residue. *: point of attachment. (Piperazine-1-yl)‑acetyl = piperazin-1-yl-acetyl spacer, O=C(CN1CCN([*:1])CC1)[*:2]; C20 diacid = O=C(O)CCCCCCCCCCCCCCCCCCC(=O)*; Trp(1-Me) = Cn1cc(C[C@H](N)C(=O)O)c2ccccc21; C18 diacid = O=C(O)CCCCCCCCCCCCCCCCC(=O)*; C16 diacid = O=C(O)CCCCCCCCCCCCCCC(=O)*; γGlu = O=C(O)[C@H](CCC(=O)[*:2])N[*:1]; AEEA = NCCOCCOCC(=O)O; Sar = CNCC(=O)O

Molecular target: Human C3 (Complement tech cat #A113c) (human, UniProt P01024 23-1663)
Sequence (P01024 23-1663 limits assumed): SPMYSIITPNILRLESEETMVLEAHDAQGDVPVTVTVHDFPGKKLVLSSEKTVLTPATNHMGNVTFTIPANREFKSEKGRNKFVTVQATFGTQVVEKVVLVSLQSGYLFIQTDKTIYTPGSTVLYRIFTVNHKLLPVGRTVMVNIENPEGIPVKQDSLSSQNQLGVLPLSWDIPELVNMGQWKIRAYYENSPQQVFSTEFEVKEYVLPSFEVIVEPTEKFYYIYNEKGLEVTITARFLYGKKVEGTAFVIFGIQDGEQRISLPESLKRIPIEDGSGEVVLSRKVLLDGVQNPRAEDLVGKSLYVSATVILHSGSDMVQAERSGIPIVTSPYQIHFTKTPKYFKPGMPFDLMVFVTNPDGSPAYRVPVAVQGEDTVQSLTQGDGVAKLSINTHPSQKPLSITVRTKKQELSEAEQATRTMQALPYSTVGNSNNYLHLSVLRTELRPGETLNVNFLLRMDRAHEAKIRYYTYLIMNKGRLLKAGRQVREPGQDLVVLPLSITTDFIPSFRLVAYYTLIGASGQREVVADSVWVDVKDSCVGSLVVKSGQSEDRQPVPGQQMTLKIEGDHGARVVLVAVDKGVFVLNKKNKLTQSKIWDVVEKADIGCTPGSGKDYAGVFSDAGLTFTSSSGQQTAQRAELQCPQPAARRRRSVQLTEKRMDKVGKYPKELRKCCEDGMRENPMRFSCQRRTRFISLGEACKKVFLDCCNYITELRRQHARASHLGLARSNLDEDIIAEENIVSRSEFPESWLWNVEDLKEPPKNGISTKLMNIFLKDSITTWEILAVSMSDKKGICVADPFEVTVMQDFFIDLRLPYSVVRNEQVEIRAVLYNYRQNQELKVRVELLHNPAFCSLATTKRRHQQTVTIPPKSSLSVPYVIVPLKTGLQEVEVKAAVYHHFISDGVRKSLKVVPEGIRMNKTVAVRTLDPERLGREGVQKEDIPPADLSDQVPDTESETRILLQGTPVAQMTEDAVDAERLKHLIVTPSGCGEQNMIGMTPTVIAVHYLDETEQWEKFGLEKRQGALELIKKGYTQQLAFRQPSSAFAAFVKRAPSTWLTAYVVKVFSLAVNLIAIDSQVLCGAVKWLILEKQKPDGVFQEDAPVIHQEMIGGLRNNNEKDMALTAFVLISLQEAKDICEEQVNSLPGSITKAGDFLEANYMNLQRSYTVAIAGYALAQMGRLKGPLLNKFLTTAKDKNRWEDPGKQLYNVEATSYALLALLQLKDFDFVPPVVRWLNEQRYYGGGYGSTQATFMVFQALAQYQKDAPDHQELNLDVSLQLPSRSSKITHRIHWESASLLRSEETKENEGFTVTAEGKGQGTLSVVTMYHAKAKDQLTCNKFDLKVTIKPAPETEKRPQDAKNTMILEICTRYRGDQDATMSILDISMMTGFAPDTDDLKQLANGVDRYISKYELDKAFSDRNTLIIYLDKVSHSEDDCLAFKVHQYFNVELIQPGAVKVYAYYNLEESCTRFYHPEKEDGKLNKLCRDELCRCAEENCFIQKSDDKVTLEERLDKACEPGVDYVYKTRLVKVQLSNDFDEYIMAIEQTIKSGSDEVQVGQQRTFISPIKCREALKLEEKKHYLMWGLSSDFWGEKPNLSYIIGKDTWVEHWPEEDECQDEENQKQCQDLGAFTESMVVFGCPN
Assay: cell-based or functional assay

Ac-SAYCI[Trp(1-Me)]QDWGEHRC[Sar]EK([γGlu-Gly-Lys-γGlu-C18 diacid])-NH2 (disulfide 4-14) [Compound 105]
inhibition of hemolysis IC50: < 100 nM

B1: Compound 103 (peptide)
peptide: Ac-EGSAYCI[Trp(1-Me)]QDWGEHK([AEEA-AEEA-γGlu-C16 diacid])C[Sar]E-NH2
modifications: disulfide 6-16
SMILES: CC[C@H](C)[C@@H]1NC(=O)[C@@H](NC(=O)[C@H](Cc2ccc(O)cc2)NC(=O)[C@H](C)NC(=O)[C@H](CO)NC(=O)CNC(=O)[C@H](CCC(=O)O)NC(C)=O)CSSC[C@@H](C(=O)N(C)CC(=O)N[C@@H](CCC(=O)O)C(N)=O)NC(=O)[C@H](CCCCNC(=O)COCCOCCNC(=O)COCCOCCNC(=O)CC[C@H](NC(=O)CCCCCCCCCCCCCCC(=O)O)C(=O)O)NC(=O)[C@H](Cc2c[nH]cn2)NC(=O)[C@H](CCC(=O)O)NC(=O)CNC(=O)[C@H](Cc2c[nH]c3ccccc23)NC(=O)[C@H](CC(=O)O)NC(=O)[C@H](CCC(N)=O)NC(=O)[C@H](Cc2cn(C)c3ccccc23)NC1=O
inhibition of hemolysis IC50: < 100 nM

B2: Compound 94 (peptide)
peptide: Ac-ICIWQDWGEHRCTEGEK([AEEA-AEEA-γGlu-C16 diacid])-NH2
modifications: disulfide 2-12
SMILES: CC[C@H](C)[C@H](NC(C)=O)C(=O)N[C@H]1CSSC[C@@H](C(=O)N[C@H](C(=O)N[C@@H](CCC(=O)O)C(=O)NCC(=O)N[C@@H](CCC(=O)O)C(=O)N[C@@H](CCCCNC(=O)COCCOCCNC(=O)COCCOCCNC(=O)CC[C@H](NC(=O)CCCCCCCCCCCCCCC(=O)O)C(=O)O)C(N)=O)[C@@H](C)O)NC(=O)[C@H](CCCNC(=N)N)NC(=O)[C@H](Cc2c[nH]cn2)NC(=O)[C@H](CCC(=O)O)NC(=O)CNC(=O)[C@H](Cc2c[nH]c3ccccc23)NC(=O)[C@H](CC(=O)O)NC(=O)[C@H](CCC(N)=O)NC(=O)[C@H](Cc2c[nH]c3ccccc23)NC(=O)[C@H]([C@@H](C)CC)NC1=O
inhibition of hemolysis IC50: < 500 nM

Ac-ICIWQDWGEHRCTEGK([AEEA-AEEA-(Piperazine-1-yl)‑acetyl-C16 diacid])-NH2 (disulfide 2-12) [Compound 95]
inhibition of hemolysis IC50: < 500 nM

B3: Compound 109 (peptide)
peptide: Ac-EGSAYCI[Trp(1-Me)]QDWGEHRC[Sar]EGEK([γGlu-Gly-γGlu-C18 diacid])-NH2
modifications: disulfide 6-16
SMILES: CC[C@H](C)[C@@H]1NC(=O)[C@@H](NC(=O)[C@H](Cc2ccc(O)cc2)NC(=O)[C@H](C)NC(=O)[C@H](CO)NC(=O)CNC(=O)[C@H](CCC(=O)O)NC(C)=O)CSSC[C@@H](C(=O)N(C)CC(=O)N[C@@H](CCC(=O)O)C(=O)NCC(=O)N[C@@H](CCC(=O)O)C(=O)N[C@@H](CCCCNC(=O)CC[C@H](NC(=O)CNC(=O)CC[C@H](NC(=O)CCCCCCCCCCCCCCCCC(=O)O)C(=O)O)C(=O)O)C(N)=O)NC(=O)[C@H](CCCNC(=N)N)NC(=O)[C@H](Cc2c[nH]cn2)NC(=O)[C@H](CCC(=O)O)NC(=O)CNC(=O)[C@H](Cc2c[nH]c3ccccc23)NC(=O)[C@H](CC(=O)O)NC(=O)[C@H](CCC(N)=O)NC(=O)[C@H](Cc2cn(C)c3ccccc23)NC1=O
inhibition of hemolysis IC50: < 250 nM

B4: Compound 5 (peptide)
peptide: Ac-ICIWQDWGKHRCT-NH2
modifications: disulfide 2-12
SMILES: CC[C@H](C)[C@H](NC(C)=O)C(=O)N[C@H]1CSSC[C@@H](C(=O)N[C@H](C(N)=O)[C@@H](C)O)NC(=O)[C@H](CCCNC(=N)N)NC(=O)[C@H](Cc2c[nH]cn2)NC(=O)[C@H](CCCCN)NC(=O)CNC(=O)[C@H](Cc2c[nH]c3ccccc23)NC(=O)[C@H](CC(=O)O)NC(=O)[C@H](CCC(N)=O)NC(=O)[C@H](Cc2c[nH]c3ccccc23)NC(=O)[C@H]([C@@H](C)CC)NC1=O
inhibition of hemolysis IC50: < 250 nM

{C16 diacid}-ESSAICIWQDWGEHRCTEGE-NH2 (disulfide 6-16) [Compound 99]
inhibition of hemolysis IC50: < 250 nM

B5: Compound 98 (peptide)
peptide: Ac-ICIWQDWGEHRCTEGK([AEEA-AEEA-γGlu-C20 diacid])-NH2
modifications: disulfide 2-12
SMILES: CC[C@H](C)[C@H](NC(C)=O)C(=O)N[C@H]1CSSC[C@@H](C(=O)N[C@H](C(=O)N[C@@H](CCC(=O)O)C(=O)NCC(=O)N[C@@H](CCCCNC(=O)COCCOCCNC(=O)COCCOCCNC(=O)CC[C@H](NC(=O)CCCCCCCCCCCCCCCCCCC(=O)O)C(=O)O)C(N)=O)[C@@H](C)O)NC(=O)[C@H](CCCNC(=N)N)NC(=O)[C@H](Cc2c[nH]cn2)NC(=O)[C@H](CCC(=O)O)NC(=O)CNC(=O)[C@H](Cc2c[nH]c3ccccc23)NC(=O)[C@H](CC(=O)O)NC(=O)[C@H](CCC(N)=O)NC(=O)[C@H](Cc2c[nH]c3ccccc23)NC(=O)[C@H]([C@@H](C)CC)NC1=O
inhibition of hemolysis IC50: < 500 nM

B6: Compound 96 (peptide)
peptide: Ac-ICIWQDWGEHRCTEGK([AEEA-AEEA-γGlu-C18 diacid])-NH2
modifications: disulfide 2-12
SMILES: CC[C@H](C)[C@H](NC(C)=O)C(=O)N[C@H]1CSSC[C@@H](C(=O)N[C@H](C(=O)N[C@@H](CCC(=O)O)C(=O)NCC(=O)N[C@@H](CCCCNC(=O)COCCOCCNC(=O)COCCOCCNC(=O)CC[C@H](NC(=O)CCCCCCCCCCCCCCCCC(=O)O)C(=O)O)C(N)=O)[C@@H](C)O)NC(=O)[C@H](CCCNC(=N)N)NC(=O)[C@H](Cc2c[nH]cn2)NC(=O)[C@H](CCC(=O)O)NC(=O)CNC(=O)[C@H](Cc2c[nH]c3ccccc23)NC(=O)[C@H](CC(=O)O)NC(=O)[C@H](CCC(N)=O)NC(=O)[C@H](Cc2c[nH]c3ccccc23)NC(=O)[C@H]([C@@H](C)CC)NC1=O
inhibition of hemolysis IC50: < 1000 nM

B7: Compound 97 (peptide)
peptide: Ac-ICIWQDWGEHRCTEGEK([AEEA-AEEA-γGlu-C18 diacid])-NH2
modifications: disulfide 2-12
SMILES: CC[C@H](C)[C@H](NC(C)=O)C(=O)N[C@H]1CSSC[C@@H](C(=O)N[C@H](C(=O)N[C@@H](CCC(=O)O)C(=O)NCC(=O)N[C@@H](CCC(=O)O)C(=O)N[C@@H](CCCCNC(=O)COCCOCCNC(=O)COCCOCCNC(=O)CC[C@H](NC(=O)CCCCCCCCCCCCCCCCC(=O)O)C(=O)O)C(N)=O)[C@@H](C)O)NC(=O)[C@H](CCCNC(=N)N)NC(=O)[C@H](Cc2c[nH]cn2)NC(=O)[C@H](CCC(=O)O)NC(=O)CNC(=O)[C@H](Cc2c[nH]c3ccccc23)NC(=O)[C@H](CC(=O)O)NC(=O)[C@H](CCC(N)=O)NC(=O)[C@H](Cc2c[nH]c3ccccc23)NC(=O)[C@H]([C@@H](C)CC)NC1=O
inhibition of hemolysis IC50: < 250 nM

B8: Compound 110 (peptide)
peptide: Ac-EGSAYCI[Trp(1-Me)]QDWGEHRC[Sar]EGKK([γGlu-Gly-γGlu-C18 diacid])-NH2
modifications: disulfide 6-16
SMILES: CC[C@H](C)[C@@H]1NC(=O)[C@@H](NC(=O)[C@H](Cc2ccc(O)cc2)NC(=O)[C@H](C)NC(=O)[C@H](CO)NC(=O)CNC(=O)[C@H](CCC(=O)O)NC(C)=O)CSSC[C@@H](C(=O)N(C)CC(=O)N[C@@H](CCC(=O)O)C(=O)NCC(=O)N[C@@H](CCCCN)C(=O)N[C@@H](CCCCNC(=O)CC[C@H](NC(=O)CNC(=O)CC[C@H](NC(=O)CCCCCCCCCCCCCCCCC(=O)O)C(=O)O)C(=O)O)C(N)=O)NC(=O)[C@H](CCCNC(=N)N)NC(=O)[C@H](Cc2c[nH]cn2)NC(=O)[C@H](CCC(=O)O)NC(=O)CNC(=O)[C@H](Cc2c[nH]c3ccccc23)NC(=O)[C@H](CC(=O)O)NC(=O)[C@H](CCC(N)=O)NC(=O)[C@H](Cc2cn(C)c3ccccc23)NC1=O
inhibition of hemolysis IC50: < 250 nM

B9: Compound 100 (peptide)
peptide: Ac-K([AEEA-AEEA-γGlu-C16 diacid])GSAICIWQDWGEHRCTEGE-NH2
modifications: disulfide 6-16
SMILES: CC[C@H](C)[C@H](NC(=O)[C@H](C)NC(=O)[C@H](CO)NC(=O)CNC(=O)[C@H](CCCCNC(=O)COCCOCCNC(=O)COCCOCCNC(=O)CC[C@H](NC(=O)CCCCCCCCCCCCCCC(=O)O)C(=O)O)NC(C)=O)C(=O)N[C@H]1CSSC[C@@H](C(=O)N[C@H](C(=O)N[C@@H](CCC(=O)O)C(=O)NCC(=O)N[C@@H](CCC(=O)O)C(N)=O)[C@@H](C)O)NC(=O)[C@H](CCCNC(=N)N)NC(=O)[C@H](Cc2c[nH]cn2)NC(=O)[C@H](CCC(=O)O)NC(=O)CNC(=O)[C@H](Cc2c[nH]c3ccccc23)NC(=O)[C@H](CC(=O)O)NC(=O)[C@H](CCC(N)=O)NC(=O)[C@H](Cc2c[nH]c3ccccc23)NC(=O)[C@H]([C@@H](C)CC)NC1=O
inhibition of hemolysis IC50: < 500 nM

B10: Compound 108 (peptide)
peptide: {C18 diacid}-EGSEYCI[Trp(1-Me)]QDWGEHRC[Sar]E-NH2
modifications: disulfide 6-16
SMILES: CC[C@H](C)[C@@H]1NC(=O)[C@@H](NC(=O)[C@H](Cc2ccc(O)cc2)NC(=O)[C@H](CCC(=O)O)NC(=O)[C@H](CO)NC(=O)CNC(=O)[C@H](CCC(=O)O)NC(=O)CCCCCCCCCCCCCCCCC(=O)O)CSSC[C@@H](C(=O)N(C)CC(=O)N[C@@H](CCC(=O)O)C(N)=O)NC(=O)[C@H](CCCNC(=N)N)NC(=O)[C@H](Cc2c[nH]cn2)NC(=O)[C@H](CCC(=O)O)NC(=O)CNC(=O)[C@H](Cc2c[nH]c3ccccc23)NC(=O)[C@H](CC(=O)O)NC(=O)[C@H](CCC(N)=O)NC(=O)[C@H](Cc2cn(C)c3ccccc23)NC1=O
inhibition of hemolysis IC50: < 500 nM

B11: Compound 101 (peptide)
peptide: Ac-EGSAICIWQDWGEHRCTEGK([γGlu-C16 diacid])-NH2
modifications: disulfide 6-16
SMILES: CC[C@H](C)[C@H](NC(=O)[C@H](C)NC(=O)[C@H](CO)NC(=O)CNC(=O)[C@H](CCC(=O)O)NC(C)=O)C(=O)N[C@H]1CSSC[C@@H](C(=O)N[C@H](C(=O)N[C@@H](CCC(=O)O)C(=O)NCC(=O)N[C@@H](CCCCNC(=O)CC[C@H](NC(=O)CCCCCCCCCCCCCCC(=O)O)C(=O)O)C(N)=O)[C@@H](C)O)NC(=O)[C@H](CCCNC(=N)N)NC(=O)[C@H](Cc2c[nH]cn2)NC(=O)[C@H](CCC(=O)O)NC(=O)CNC(=O)[C@H](Cc2c[nH]c3ccccc23)NC(=O)[C@H](CC(=O)O)NC(=O)[C@H](CCC(N)=O)NC(=O)[C@H](Cc2c[nH]c3ccccc23)NC(=O)[C@H]([C@@H](C)CC)NC1=O
inhibition of hemolysis IC50: < 500 nM
